Consider three molecules from patent US20260070975A1 (SANTA ANA BIO, published 2026).

Numbering of substitutions follows the chain as printed.

For test [1], the target named is T1, c-Kit expressed on the cell surface of M-07e cells (human, UniProt P10721 26-976). Kind of test: cell-based or functional assay.
Test [2] concerns the target T2, His-tagged PDGFRb extracellular domain (UniProt P09619 33-532, limits assumed).
T2 construct: extracellular domain; also called c-Kit family member; not shown: His tag
Kind of test: ELISA, His-tagged extracellular domain coated. The protocol: (§1) His-tagged human c-Kit, His-tagged cynomolgus c-Kit, and His-tagged PDGFRa, PDGFRb, CSF1R, and FLT3 extracellular domains were immobilized on 96 well ELISA plates. Plates were washed with PBST (Phosphate buffered saline+0.05% Tween 20) and blocked for 1 hour with 1% BSA in PBS. Following washing with PBST, mAbs were added to the coated plate and incubated for 2 hours at room temperature. Plates were washed and incubated with HRP-conjugated goat anti-human IgG secondary antibody for 1 hour at room temperature. Following washing, antibody binding was detected colorimetrically by adding 3,3′,5,5′-tetramethylbenzidine (TMB) and incubated at room temperature for 10-20 minutes before adding 2.5N sulfuric acid stopping solution. Absorbance at 450 nm was measured on a plate reader (PerkinElmer). Data was analyzed using GraphPad Prism.

In test [3] the target is T3, His-tagged PDGFRa extracellular domain (UniProt P16234 24-528, limits assumed).
T3 construct: extracellular domain; also called c-Kit family member; not shown: His tag
T3 sequence (P16234 24-528 limits assumed): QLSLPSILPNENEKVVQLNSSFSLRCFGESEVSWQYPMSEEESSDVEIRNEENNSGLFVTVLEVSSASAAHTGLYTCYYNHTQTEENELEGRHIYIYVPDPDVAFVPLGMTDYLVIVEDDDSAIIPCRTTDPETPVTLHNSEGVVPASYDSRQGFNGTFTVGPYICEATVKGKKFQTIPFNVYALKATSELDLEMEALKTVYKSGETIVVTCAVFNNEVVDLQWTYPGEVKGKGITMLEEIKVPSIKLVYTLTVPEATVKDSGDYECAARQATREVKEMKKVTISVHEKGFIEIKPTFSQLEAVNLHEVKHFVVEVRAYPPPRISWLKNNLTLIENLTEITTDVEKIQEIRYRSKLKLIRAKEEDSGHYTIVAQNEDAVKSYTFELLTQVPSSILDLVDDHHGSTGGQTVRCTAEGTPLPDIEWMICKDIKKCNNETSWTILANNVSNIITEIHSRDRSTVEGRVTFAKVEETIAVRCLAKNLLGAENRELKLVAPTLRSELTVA
The test is described as follows: ELISA, His-tagged extracellular domain coated. The protocol:
as §1

For test [4], the target named is T4, His-tagged FLT3 extracellular domain (UniProt P36888 27-543, limits assumed).
T4 construct: extracellular domain; also called c-Kit family member; not shown: His tag
T4 sequence (looked up): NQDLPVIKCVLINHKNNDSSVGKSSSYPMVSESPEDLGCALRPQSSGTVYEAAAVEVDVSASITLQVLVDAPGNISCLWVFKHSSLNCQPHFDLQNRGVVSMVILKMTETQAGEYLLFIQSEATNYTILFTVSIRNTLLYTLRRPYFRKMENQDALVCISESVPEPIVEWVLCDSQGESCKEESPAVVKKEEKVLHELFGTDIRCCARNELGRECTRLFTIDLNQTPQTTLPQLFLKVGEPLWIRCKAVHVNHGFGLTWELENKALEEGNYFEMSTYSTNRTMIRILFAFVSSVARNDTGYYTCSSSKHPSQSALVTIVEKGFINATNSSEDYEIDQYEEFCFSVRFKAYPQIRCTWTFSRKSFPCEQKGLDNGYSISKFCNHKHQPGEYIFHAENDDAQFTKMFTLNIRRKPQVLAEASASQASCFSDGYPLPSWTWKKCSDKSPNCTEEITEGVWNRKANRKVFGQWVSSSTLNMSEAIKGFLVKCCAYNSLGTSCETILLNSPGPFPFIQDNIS
Kind of test: ELISA, His-tagged extracellular domain coated. The protocol:
as §1

For test [5], the target named is T5, His-tagged CSF1R extracellular domain (UniProt P07333 20-517, limits assumed).
T5 construct: extracellular domain; also called c-Kit family member; not shown: His tag
T5 sequence (P07333 20-517 limits assumed): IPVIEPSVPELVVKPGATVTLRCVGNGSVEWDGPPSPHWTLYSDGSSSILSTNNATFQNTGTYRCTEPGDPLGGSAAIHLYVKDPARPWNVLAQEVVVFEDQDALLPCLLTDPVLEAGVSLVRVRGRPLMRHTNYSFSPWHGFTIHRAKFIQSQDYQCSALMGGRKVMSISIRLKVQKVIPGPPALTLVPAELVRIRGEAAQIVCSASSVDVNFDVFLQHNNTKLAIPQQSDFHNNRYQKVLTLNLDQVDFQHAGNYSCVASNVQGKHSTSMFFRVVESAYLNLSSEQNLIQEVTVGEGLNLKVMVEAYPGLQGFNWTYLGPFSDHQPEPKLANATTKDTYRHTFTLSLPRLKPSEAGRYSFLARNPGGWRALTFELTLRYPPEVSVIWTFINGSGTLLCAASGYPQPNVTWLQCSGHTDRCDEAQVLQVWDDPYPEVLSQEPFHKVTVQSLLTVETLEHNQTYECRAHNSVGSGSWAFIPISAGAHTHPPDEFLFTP
Kind of test: ELISA, His-tagged extracellular domain coated. The protocol: as §1

The target of test [6] is T1, c-Kit expressed on the cell surface of …. Kind of test: flow cytometry on M-07e cells. Here is the method: Target binding of c-Kit antibodies to c-Kit-expressing cells was assessed by flow cytometry. Cultured M-07e cells were resuspended in FACS Blocking Buffer (PBS+10% normal human serum) for 30 minutes. Following washing, cells were incubated with c-Kit antibodies in FACS Buffer (PBS+0.5% bovine serum albumin+0.09% sodium azide) and incubated at 4° C. for 30 minutes, washed and incubated with PE-labeled anti-human secondary antibody. Cells were incubated at 4° C. for 30 minutes in the dark. Following washing, cytofluorimetric analysis was conducted using a BD FACS Symphony A3 (BD Biosciences). Cells were sorted by scatter properties and separated for single cell analysis using side scatter width vs side scatter area. Antibody binding to cells was quantitated by measuring fluorescent emissions of excitation wavelength of 561 nm using a 586/15 nm filter. All tested c-Kit antibodies were capable of binding to cells expressing c-Kit.

For test [7], the target named is T6, Cynomolgus c-Kit (BLI analyte) (cynomolgus).
T6 construct: also called Cynomoguls c-Kit
The test is described as follows: BLI (Octet), antibody on capture sensor. Here is the method: (§2) Further, binding affinities of c-Kit antibodies to human c-Kit and cynomolgus c-Kit were measured by biolayer interferometry ([…]) using an Octect instrument. Briefly, capture sensors were loaded with test antibodies with 3-fold dilutions. The association and dissociation rates to were determined and used to calculate the equilibrium dissociation constant KD (Table 3).

The target in test [8] is Human c-Kit (BLI analyte) (human, UniProt P10721 26-520, limits assumed). Kind of test: BLI (Octet), antibody on capture sensor. The protocol: as §2
Chain of Human c-Kit (BLI analyte) (P10721 26-520 limits assumed): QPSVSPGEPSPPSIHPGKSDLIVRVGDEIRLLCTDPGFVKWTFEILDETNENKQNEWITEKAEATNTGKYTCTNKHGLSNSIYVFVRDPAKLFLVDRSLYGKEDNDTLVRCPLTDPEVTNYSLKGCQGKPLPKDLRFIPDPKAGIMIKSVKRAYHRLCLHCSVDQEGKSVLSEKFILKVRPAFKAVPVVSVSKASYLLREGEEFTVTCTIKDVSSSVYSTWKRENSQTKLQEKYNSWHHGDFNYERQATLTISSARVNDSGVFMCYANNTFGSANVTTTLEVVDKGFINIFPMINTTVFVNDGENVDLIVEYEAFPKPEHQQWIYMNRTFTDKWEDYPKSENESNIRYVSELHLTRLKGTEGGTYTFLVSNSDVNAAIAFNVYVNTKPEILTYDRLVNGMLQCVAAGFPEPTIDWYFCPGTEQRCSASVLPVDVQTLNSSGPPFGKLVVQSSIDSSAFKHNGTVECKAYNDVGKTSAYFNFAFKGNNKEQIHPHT
Test [9] concerns the target T1, c-Kit expressed on the cell surface of …. The test is described as follows: cell-based or functional assay. The source holds these as a separate data set.

T1 sequence (P10721 26-976): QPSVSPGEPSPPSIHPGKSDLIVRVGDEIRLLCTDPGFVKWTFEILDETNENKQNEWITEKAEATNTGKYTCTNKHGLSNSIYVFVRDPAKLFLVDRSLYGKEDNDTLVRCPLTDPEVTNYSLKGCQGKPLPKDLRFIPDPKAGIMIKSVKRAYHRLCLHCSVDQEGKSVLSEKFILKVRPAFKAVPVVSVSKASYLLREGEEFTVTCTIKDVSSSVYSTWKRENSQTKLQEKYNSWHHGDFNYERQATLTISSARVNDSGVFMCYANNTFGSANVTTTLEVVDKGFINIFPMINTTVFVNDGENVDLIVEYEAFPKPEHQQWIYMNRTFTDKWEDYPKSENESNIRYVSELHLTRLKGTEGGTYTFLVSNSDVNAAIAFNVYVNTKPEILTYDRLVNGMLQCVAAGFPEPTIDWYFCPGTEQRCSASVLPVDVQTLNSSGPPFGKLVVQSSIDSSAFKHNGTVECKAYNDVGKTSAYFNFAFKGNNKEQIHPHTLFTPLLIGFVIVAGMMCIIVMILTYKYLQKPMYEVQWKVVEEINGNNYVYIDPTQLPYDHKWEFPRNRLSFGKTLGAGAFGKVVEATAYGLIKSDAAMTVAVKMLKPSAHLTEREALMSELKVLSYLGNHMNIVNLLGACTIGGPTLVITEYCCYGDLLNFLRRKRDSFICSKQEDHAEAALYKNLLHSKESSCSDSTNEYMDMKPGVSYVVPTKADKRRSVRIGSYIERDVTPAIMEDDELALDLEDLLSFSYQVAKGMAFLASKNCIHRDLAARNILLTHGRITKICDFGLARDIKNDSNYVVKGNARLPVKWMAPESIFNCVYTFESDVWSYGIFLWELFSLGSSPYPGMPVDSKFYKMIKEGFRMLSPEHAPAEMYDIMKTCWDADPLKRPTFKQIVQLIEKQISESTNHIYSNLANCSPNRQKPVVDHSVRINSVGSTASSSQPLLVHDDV
T2 sequence (P09619 33-532 limits assumed): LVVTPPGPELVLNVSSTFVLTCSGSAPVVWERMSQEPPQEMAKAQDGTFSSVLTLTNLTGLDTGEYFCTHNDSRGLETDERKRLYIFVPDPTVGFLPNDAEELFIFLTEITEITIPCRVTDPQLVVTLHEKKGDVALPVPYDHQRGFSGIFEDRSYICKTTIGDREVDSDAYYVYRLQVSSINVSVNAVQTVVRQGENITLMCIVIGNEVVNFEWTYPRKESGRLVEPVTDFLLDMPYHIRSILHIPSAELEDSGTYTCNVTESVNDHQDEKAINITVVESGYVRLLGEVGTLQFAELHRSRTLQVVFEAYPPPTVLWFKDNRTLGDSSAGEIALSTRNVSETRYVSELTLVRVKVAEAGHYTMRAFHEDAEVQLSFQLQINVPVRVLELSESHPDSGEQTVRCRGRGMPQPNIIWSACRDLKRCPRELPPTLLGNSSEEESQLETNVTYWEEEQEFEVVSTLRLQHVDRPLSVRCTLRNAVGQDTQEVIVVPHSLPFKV

B1: hSR1-6 (antibody, human IgG1, kappa, V domains shown)
VH: QVQLVQSGAEVKKPGASVKMSCKASGYTFTSYNMHWVRQAPGQGLEWIGVIYSGNGDTSYAQKFQGRATLTADTSTSTAYMELSSLRSEDTAVYYCARERDTRFGNWGQGTLVTVSS
VL: DIQLTQSPSSLSASVGDRATITCRASESVDIYGNSFMHWYQQKPGKAPKLLIYLASNLESGVPSRFSGSGSRTDFTLTISSVQPEDFATYYCQQNNEDPYTFGQGTKLEIKR
notes: also called humanized SR1-6; hSR1-H3 / hSR1-L2r
B1: the “IC50, inhibition of SCF-dependent proliferation of M-07e cells” value in test [1] is 0.152 nM. Besides, the binding result in test [2], in test [3], in test [4] and in test [5] was “no binding” each time. For the same molecule, the “Measuring Fluorescent Intensity (MFI)” value in test [6] was 3590 MFI. Also, the “Percent Positive for c-Kit on M-07e cells” value in test [6] worked out at 99.4%. Moreover, the Kd is 0.296 nM in [7] and 0.247 nM in test [8].

B2: anti-siglec/anti-c-Kit bispecific hRND-3/hSR1-1 (bispecific antibody, V domains shown)
VH 1: QVQLVQSGAEVKKPGASVKLSCKASGYAFTSYWMHWVRQAPGQRLEWIGEIYPTNGGTTYAQKFQGRATLTVDKSTSTAYMELSRLRSDDTAVYYCTIEDFYAMDYWGQGTTVTVSS
VL 1: DIVMTQTPLSLSVTPGQPASISCKSSQSLLDSDGKTSLNWLLQKPGQSPQRLIYLVSKLDSGVPDRFSGSGSGTDFTLKISRVEAEDVGVYYCWQGTHFPYTFGQGTKLEIK
VH 2: B1 VH with M20V, I48M, A68V, L70M
VL 2: DIQLTQSPSSLSASVGDRATITCRASESVDIYGNSFMHWYQQKPGKAPKLLIYLASNLESGVPSRFSGSGSGTDFTLTISSVQPEDFATYYCQQNNEDPYTFGQGTKLEIK
Consider B2, for which, in [9], the “IC50 (read off the curve)” value was ~0.2 nM.

B3: anti-siglec/anti-c-Kit bispecific JML-1/hSR1-1 (bispecific antibody, V domains shown)
VH 1: KVQLLESGGGLVQPGRSLRLSCAASGFTFDDYGMHWVRQAPGKGLEWVSGISWNSGSIGYADSVKGRFTISRDNSKNTLYLQMNSLRAEDTAVYYCARGGQTIDIWGQGTMVTVSS
VL 1: not shown
VH 2: B1 VH with M20V, I48M, A68V, L70M
VL 2: B2 VL 2
Regarding B3, in test [9], the “IC50 (read off the curve)” value is ~0.3 nM.
